# Experimental data published in US10392620B2, “Cytochrome B (CYTB) nucleic acid molecules that control pathogens” (Dow AgroSciences LLC, priority 2016, dated 2019).
# B1: MgCytB-T3: 116 bp dsRNA of Zymoseptoria CytB region 3, location 279-394 (SEQ ID NO:6) (nucleic acid, listed as Zymoseptoria tritici)
# chain: TTACCTGCACGTGGGTAGAGGGTTATACTACGGGTCATACAAAGCCCCTAGAACATTAACATGAACAATCGGTACTATAATACTAGTTCTGATGATGGCAACCGCATTCTTAGGGT
# modifications: long dsRNA, chemistry not given here, further chemistry not given here
# B2: MgCytB-T2: 203 bp dsRNA of Zymoseptoria CytB region 2, location 603-805 (SEQ ID NO:5) (nucleic acid, listed as Zymoseptoria tritici)
# chain: ACACGATACAGCGGGTTCAGGAAATCCTTTAGGTGTATCAGGTAACTACGATAGATTACCATTCGCCCCTTACTTTATATTCAAAGATTTAATAACAATATTTTTATTCATTATAGTGTTATCAATATTTATTTTCTTTATGCCTAACGTTTTAGGTGACAGCGAGAATTATGTTATGGCTAACCCTATGCAAACTCCACCTG
# modifications: complementary strand of dsRNA
# B3: MgCytB-T1: 267 bp dsRNA of Zymoseptoria CytB region 1, location 364-630 (SEQ ID NO:4) (nucleic acid, listed as Zymoseptoria tritici)
# chain: GTTCTGATGATGGCAACCGCATTCTTAGGGTATGTATTACCTTATGGTCAAATGTCTTTATGAGGAGCAACAGTTATAACTAACTTATTGAGTGCAATACCTTGAGTTGGACAAGACATAGTTGAATTCGTATGAGGTGGATTTTCTGTTAACAATGCAACATTGAACAGATTCTTTGCTCTACATTTCGTTTTACCGTTTGTGTTAGCTGCATTAGTTTTAATGCATCTAATAGCTTTACACGATACAGCGGGTTCAGGAAATCCT
# modifications: complementary strand of dsRNA
# B4: MgCytB-T6: 258 bp dsRNA of Zymoseptoria CytB region T6, location 775-1032 (SEQ ID NO:9) (nucleic acid, listed as Zymoseptoria tritici)
# chain: GTTATGGCTAACCCTATGCAAACTCCACCTGCTATAGTGCCTGAATGATATTTATTACCTTTCTACGCTATACTAAGATCAATACCTAACAAACTATTAGGTGTGATCGCAATGTTTTCTGCTATATTGATTATAATGATAATGCCAATTACCGATTTAGGTAGAAGTAGAGGATTACAGTTTAGACCTTTAAGCAAGATCACATTTTACATATTTGTTGCTAACTTCTTAGTATTAATGCAATTAGGTGCTAATCAC
# modifications: complementary strand of dsRNA
# B5: MgCytB-T7: 221 bp dsRNA of Zymoseptoria CytB region T7, location 947-1167 (SEQ ID NO:10) (nucleic acid, listed as Zymoseptoria tritici)
# chain: GATTACAGTTTAGACCTTTAAGCAAGATCACATTTTACATATTTGTTGCTAACTTCTTAGTATTAATGCAATTAGGTGCTAATCACGTTGAGTCACCATTTATAGAATTTGGGCAAATTAGTACAGTACTGTACTTTTCACATTTCTTAATCATAGTGCCTCTAGTAAGCTTAATCGAGAATACTTTAGTGGATATGCACTTAAACAACACAATAACGTAA
# modifications: complementary strand of dsRNA
# B6: MgCytB-T4: 219 bp dsRNA of Zymoseptoria CytB region T4, location 1-219 (SEQ ID NO:7) (nucleic acid, listed as Zymoseptoria tritici)
# chain: ATGAGGATTTGGAAGAGTCACCCTTTATTTAGTCTGGTTAATGGTTATCTTATCGATTCACCACAACCAAGTAATCTAAGCTATCTATGAAATTTCGGTTCATTACTGGGATTTTGTCTTGTAATACAAATCGTTACTGGTGTTACACTTGCTATGCATTATAACCCTAGCGTATCTGAAGCATTTAACTCAGTTGAACACATAATGAGAGATGTAAAC
# modifications: complementary strand of dsRNA
# B7: MgCytB-T5: 172 bp dsRNA of Zymoseptoria CytB region T5, location 173-344 (SEQ ID NO:8) (nucleic acid, listed as Zymoseptoria tritici)
# chain: TATCTGAAGCATTTAACTCAGTTGAACACATAATGAGAGATGTAAACAATGGATGACTTATACGTTATCTTCACTCTAATACTGCTTCAGCTTTCTTCTTTTTAGTTTACCTGCACGTGGGTAGAGGGTTATACTACGGGTCATACAAAGCCCCTAGAACATTAACATGAAC
# modifications: complementary strand of dsRNA
# Tested on: Zymoseptoria tritici (SEPTTR) US-184
# Test: CytB dsRNA foliar application bioassay on wheat seedlings, SEPTTR US-184
# Type: in vivo
# Settings: compared to the non-treated control; strain not given
# Experimental: RNAi (dsRNA) fungicidal solutions were prepared in TE buffer (pH 8.0), which were then mixed with 9 volumes of phosphate buffer (pH 7.5) containing 0.1% Triton X-100. The fungicidal solutions were applied to wheat seedlings using an automated booth sprayer to run-off. All sprayed plants were allowed to air dry prior to further handling.
# The following served as controls: 1% silwet in phosphate buffer control, disease pressure control (untreated), and clean plant control (negative control).
# (§1) These plants were inoculated with an aqueous spore suspension of Zymoseptoria tritici either prior to or after fungicidal treatments. After inoculation the plants were kept in 100% relative humidity to allow spores to germinate and infect the leaves. The plants were then transferred to a greenhouse until disease developed.
row,Molecule,control of Septoria leaf blotch on wheat seedlings
1,B1,observed to control Septoria leaf blotch
2,B2,observed to control Septoria leaf blotch
3,B3,observed to control Septoria leaf blotch

# Tested on: Zymoseptoria tritici (SEPTTR-184)
# Test: Efficacy of target gene fragments (MgCytB dsRNA tiles) on wheat plants, SEPTTR-184
# Type: in vivo
# Set-up: Average of 2 trials SEPTTR-184 3DC / Average of 2 trials SEPTTR-184 1DP: scale not given here
# Settings: 1DP (preventative)
# Experimental: The 200 ppm rate for each treatment was prepared by adding the calculated volume of the corresponding dsRNA solution in TE buffer. Lower rates were prepared as 4-fold dilutions (50 ppm, 12.5 ppm, and 3.12 ppm). A non-target dsRNA control (YFP), a TE/phosphate buffer control, disease pressure control, and clean plant control were included.
# as §1
Molecule,ED50 SEPTTR-184 1DP [ppm],ED80 SEPTTR-184 1DP [ppm]
B1,<3.125,>200
B4,<3.125,>200
B5,<3.125,>200
B2,<3.125,>200
B3,<3.125,200
B6,<3.125,>200
B7,<3.125,>200

# Same assay, conditions: 1DP (preventative); average of 200, 50, 12.5, 3.125 ppm
row,Molecule,Disease Control All Rates Average SEPTTR-184 1DP [%]
1,B1,68
2,B4,73
3,B5,69
4,B2,71
5,B3,66
6,B6,73
7,B7,71

# Same assay, conditions: 1DP (preventative); sum over 200, 50, 12.5, 3.125 ppm
row,Molecule,Sum of Disease Control SEPTTR-184 1DP [%]
1,B1,271
2,B4,293
3,B5,275
4,B2,285
5,B3,263
6,B6,292
7,B7,284

# Same assay, conditions: 3DC (curative)
Molecule,ED50 SEPTTR-184 3DC [ppm],ED80 SEPTTR-184 3DC [ppm]
B1,<3.125,<3.125
B4,<3.125,>200
B5,<3.125,>200
B2,<3.125,27
B3,<3.125,159
B6,<3.125,44
B7,4.605,200

# Same assay, conditions: 3DC (curative); average of 200, 50, 12.5, 3.125 ppm
row,Molecule,Disease Control All Rates Average SEPTTR-184 3DC [%]
1,B1,84
2,B4,60
3,B5,74
4,B2,82
5,B3,79
6,B6,79
7,B7,66

# Same assay, conditions: 3DC (curative); sum over 200, 50, 12.5, 3.125 ppm
row,Molecule,Sum of Disease Control SEPTTR-184 3DC [%]
1,B1,334
2,B4,239
3,B5,297
4,B2,329
5,B3,318
6,B6,316
7,B7,265

# Same assay, conditions: 3.125 ppm; 1DP (preventative)
row,Molecule,Average of 2 trials SEPTTR-184 1DP
1,B1,59
2,B4,72
3,B5,60
4,B2,67
5,B3,53
6,B6,71
7,B7,68

# Same assay, conditions: 3.125 ppm; 3DC (curative)
row,Molecule,Average of 2 trials SEPTTR-184 3DC
1,B1,84
2,B4,53
3,B5,76
4,B2,77
5,B3,77
6,B6,76
7,B7,47

# Same assay, conditions: 12.5 ppm; 1DP (preventative)
row,Molecule,Average of 2 trials SEPTTR-184 1DP
1,B1,64
2,B4,77
3,B5,69
4,B2,71
5,B3,58
6,B6,74
7,B7,68

# Same assay, conditions: 12.5 ppm; 3DC (curative)
row,Molecule,Average of 2 trials SEPTTR-184 3DC
1,B1,84
2,B4,63
3,B5,72
4,B2,77
5,B3,76
6,B6,75
7,B7,66

# Same assay, conditions: 50 ppm; 1DP (preventative)
row,Molecule,Average of 2 trials SEPTTR-184 1DP
1,B1,74
2,B4,72
3,B5,71
4,B2,71
5,B3,71
6,B6,73
7,B7,73

# Same assay, conditions: 50 ppm; 3DC (curative)
row,Molecule,Average of 2 trials SEPTTR-184 3DC
1,B1,81
2,B4,64
3,B5,73
4,B2,85
5,B3,79
6,B6,81
7,B7,72

# Same assay, conditions: 200 ppm; 1DP (preventative)
row,Molecule,Average of 2 trials SEPTTR-184 1DP
1,B1,74
2,B4,72
3,B5,75
4,B2,77
5,B3,80
6,B6,74
7,B7,76

# Same assay, conditions: 200 ppm; 3DC (curative)
row,Molecule,Average of 2 trials SEPTTR-184 3DC
1,B1,84
2,B4,59
3,B5,76
4,B2,90
5,B3,85
6,B6,83
7,B7,80

# Same assay, conditions: in vivo
row,Molecule,"level of control, ranking among fragments"
1,B1,best level of control
